Blank lines part the entries; values can stand above or below the substance they belong to.
Tests used:
[1] = target: p29^GFP-labeled vesicles (vesicles carrying a GFP-tagged p29 fusion protein) [GFP: P42212]; assay: competition with native myosin V in the p29^GFP vesicle / F-actin binding assay, 10 nM T4, ~2-3 pmol polypeptide
[2] = target: p29 vesicles (vesicles carrying p29, the substrate binding subunit of type II iodothyronine 5'-deiodinase, D2) (rat) (UniProt Q62876); assay: in vitro actin binding assay, competition with native F-actin-bound myosin V, 10 nM T4
[3] = target: F-actin (actin cytoskeleton of rat astrocytes, Triton-insoluble fraction) (rat); assay: in vitro actin binding assay, release with 5 mM EGTA
[4] = target: F-actin (actin cytoskeleton of rat astrocytes, Triton-insoluble fraction) (rat); assay: in vitro actin binding assay (F-lysate plus V-lysate, Triton fractionation, SDS-PAGE)
[5] = target: F-actin (actin cytoskeleton of rat astrocytes, Triton-insoluble fraction) (rat); assay: in vitro actin binding assay, Triton fractionation, gamma counting and SDS-PAGE
[6] = target: F-actin (actin cytoskeleton of rat astrocytes, Triton-insoluble fraction) (rat); assay: in vitro actin binding assay, release after 0.1 mM Ca^2+, 1 mM Mg^2+, 0.1 mM ATP
[7] = target: F-actin (actin cytoskeleton of rat astrocytes, Triton-insoluble fraction) (rat); assay: F-lysate plus V-lysate with p29^GFP vesicles, fluorescence of the Triton-insoluble pellet

percent decrease of T4-dependent p29 binding [1]: > 75%
Substance: ? myosin ^1513 (residues 1513-1852) (from UniProt Q99104 1513-1852)

percent decrease of T4-dependent p29 binding [1]: > 75%
Substance: ? myosin ^1767 (residues 1767-1852) (from UniProt Q99104 1767-1852)

The remaining lines, values behind:

Substance: ? myosin V^tail (entire myosin V tail, residues 953 to 1852) (from UniProt Q99104 953-1852)
percent decrease of p29 binding to F-actin [1]: > 75% | percent of the T4-dependent binding of p29 vesicles to F-actin blocked (5 µl) [2]: 50% | percent of the p29 binding blocked (10 µl) [2]: > 95%

Substance: ? myosin ^1830 (residues 1830-1852) (from UniProt Q99104 1830-1852) (peptide)
percent decrease of T4-dependent p29 binding [1]: > 75%

Substance: p29 vesicles (vesicles carrying p29, the substrate binding subunit of type II iodothyronine 5'-deiodinase, D2) (from UniProt Q62876 1-234)
percent of the Ca^2+-stimulated release of p29 from F-actin blocked by EGTA [3]: > 50% | percent of p29 remaining in the non-actin bound, Triton-soluble fraction (10 nM T3) [4]: > 90% | percent of radiolabeled p29 bound to the Triton insoluble, F-actin fraction (10 nM T4) [4]: > 70% | percent of total p29 vesicles bound to F-actin (after 10 nM T4) [5]: 80% | percent of p29 vesicles released from F-actin by Ca^2+, Mg^2+ and ATP [6]: 70%

Substance: p29^GFP-labeled vesicles (vesicles carrying a GFP-tagged p29 fusion protein) (from UniProt P42212 1-238)
percent increase in p29^GFP vesicle binding to F-actin at 100 nM T3 [7]: 10 to 20%

From patent publication US20040265918A1
